Measured values reported in the Human Domainome abundance scans (Beltran et al. 2025).

B1: Double-stranded RNA-binding protein Staufen homolog 1, residues 183 to 249; numbered along this chain, O95793 (parent)
chain: KSEISQVFEIALKRNLPVNFEVARESGPPHMKNFVTKVSVGEFVGEGEGKSKKISKKNAAIAVLEEL

Variants of: B1
Test: abundance fitness (aPCA) (normalised: wild type 0, dead -1); higher = more abundant; growth selection in yeast, the domain comes from the species named
Conditions: Homo sapiens

Abundance fitness of substitutions, site by site:
E21: F -0.055; M -0.181; Q 0.014; W -0.009; Y -0.172; N -0.226; A -0.059; V -0.023; K -0.049; D -0.105; L -0.133; I -0.204; C -0.114; R -0.084; H -0.072; S -0.078; P -1.05; G -0.165
M31: L -0.098; H 0.079; D 0.199; P -0.132; C 0.073; V -0.099; G -0.013; W -0.208; Y -0.089; I -0.12; N 0.083; Q 0.049; E 0.103; S 0.113; K 0.104; R 0.025; F -0.263; T 0.019
V22: Q -0.031; A -0.022; K 0.105; W -0.36; T 0.034; R 0.069; S -0.059; L 0.016; I -0.005; D -0.102; P 0.056; N -0.114; M -0.081; E -0.033; H -0.083; F -0.165; Y -0.094; C -0.087
E25: L -0.083; V -0.025; I -0.141; T 0.016; A -0.081; P -0.209; K 0.046; Y -0.151; M -0.011; S 0.002; G -0.075; H -0.052; Q 0.021; C -0.104; R -0.046
P17: V -0.174; C -0.447; G -0.24; N -0.112; S -0.008; L -0.196; Y -0.288; R -0.025; T 0.012; A -0.09; W -0.56; K 0.031; H -0.093; M -0.172; Q -0.037; I -0.323; E -0.09
R14: S -0.31; P -0.594; W -0.25; A -0.204; N -0.179; Q -0.188; T -0.371; L -0.139; F -0.232; G -0.361; E -0.334; Y -0.048; H -0.155; D -0.487; K -0.212; M 0.014; V -0.6
G27: S -0.267; T -0.309; F -0.436; D -0.259; L -0.418; N -0.307; E -0.339; W -0.48; Y -0.437; V -0.457; Q -0.259; H -0.326; C -0.366; A -0.239; I -0.223; M -0.395; K -0.207
H30: L -0.255; K 0.022; P -0.221; A -0.139; V -0.353; N 0.078; Y -0.208; F -0.278; C -0.207; W -0.365; Q -0.11; I -0.288; G -0.017; E -0.037; R -0.077; S -0.114; M -0.115
N15: G 0.025; L -0.531; A -0.198; I -0.629; R -0.155; Q -0.144; F -0.557; D -0.156; E -0.231; T -0.431; V -0.785; C -0.325; M -0.296; H 0.006; Y -0.637; S -0.146
N19: G -0.323; D -0.229; M -0.048; Y -0.167; V -0.101; C 0.027; A -0.047; P -0.698; W -0.246; H 0.011; R 0.077; L -0.069; K 0.082; S 0.006; F -0.062; T 0.037; I -0.15
V18: M -0.396; D -0.746; L -0.404; Q -0.647; Y -0.739; R -0.657; G -0.707; F -0.832; N -0.906; T -0.784; W -0.861; S -0.465; A -0.377; P -0.402; E -0.507; K -0.562; C -0.218
F34: C -0.547
L16: H -0.708; K -0.432; R -0.587; S -0.609; T -0.594; E -0.472; G -0.863; F -0.424; N -0.716; Y -0.454; W -0.063; I -0.196; Q -0.128; P -0.663; A -0.421; C -0.515; M -0.131; V -0.176; D -0.54
N33: Q -0.047; R 0.008; L -0.072; I -0.117; T 0.052; W -0.054; S -0.016; V -0.115; A -0.219; H 0.016; D -0.376; E -0.269; F -0.29; G -0.221; Y -0.255; C -0.163; P -0.386; M -0.128; K -0.011
S26: T 0.085; Q -0.337; F -0.348; P -0.27
P28: T -0.177; W -0.316; G -0.111; N -0.152; Q -0.202; H -0.123; Y -0.342; I -0.322; F -0.35; S -0.089; K -0.218; E -0.153; D -0.167; V -0.278; M -0.303; C -0.157; A -0.155
F20: Q -0.657; M -0.305; N -0.779; T -0.395; P -0.654; A -0.499; C -0.361; Y -0.291; L -0.286; W 0.036; I -0.114; R -0.569; S -0.429; K -0.45; D -0.613; H -0.699
A23: W -0.141; F -0.121; H 0.066; T 0.033; P 0.021; C -0.055; L 0.008; E -0.102; Y -0.086; K -0.052; Q -0.005; D -0.108; S -0.063; M 0.06; I 0.011
R24: Q -0.085; I -0.17; A -0.132; N -0.207; C -0.045; D -0.141; V -0.102; P -0.035; E -0.031; L -0.129; H -0.118; Y -0.246; S -0.065; G -0.196; K 0.016; W -0.256; T -0.085
K13: V -0.215; S -0.194; T -0.246; Y -0.323; W -0.59
P29: D -0.051; T -0.111; A -0.005; L -0.273; I -0.205; K -0.061; F -0.28; Y -0.259; S -0.04; G 0.052; R -0.08; E -0.022; C -0.198; M -0.114; V -0.205; H -0.105; W -0.274
K32: A -0.037; Y -0.187; L -0.179; W -0.483; M -0.178; I -0.178; D -0.332; R -0.052; E -0.077; Q -0.129; S -0.138; N -0.192; H -0.249; G 0.001; F -0.516; P -0.099; T -0.118
